The target of the assay is L1-70-Myc. Kind of assay: ELISA; purified L1-70-Myc coated in PBS on 96-well plates; purified Top1-HA at 0.1, 0.5, 1, 5 and 10 nM, 2 h at 37 °C; detection with rabbit anti-HA, TMB. Background: An ELISA detects its analyte on a solid surface through an enzyme-linked reagent.

B1: Top1-HA (enzyme)
chain: MSGDHLHNDSQIEADFRLNDSHKHKDKHKDREHRHKEHKKDKDKDREKSKHSNSEHKDSEKKHKEKEKTKHKDGSSEKHKDKHKDRDKERRKEEKIRAAGDAKIKKEKENGFSSPPRIKDEPEDDGYFAPPKEDIKPLKRLRDEDDADYKPKKIKTEDIKKEKKRKSEEEEDGKLKKPKNKDKDKKVAEPDNKKKKPKKEEEQKWKWWEEERYPEGIKWKFLEHKGPVFAPPYEPLPESVKFYYDGKVMKLSPKAEEVATFFAKMLDHEYTTKEIFRKNFFKDWRKEMTNDEKNTITNLSKCDFTQMSQYFKAQSEARKQMSKEEKLKIKEENEKLLKEYGFCVMDNHRERIANFKIEPPGLFRGRGNHPKMGMLKRRIMPEDIIINCSKDAKVPSPPPGHKWKEVRHDNKVTWLVSWTENIQGSIKYIMLNPSSRIKGEKDWQKYETARRLKKCVDKIRNQYREDWKSKEMKVRQRAVALYFIDKLALRAGNEKEEGETADTVGCCSLRVEHINLHPELDGQEYVVEFDFPGKDSIRYYNKVPVEKRVFKNLQLFMENKQPEDDLFDRLNTGILNKHLQDLMEGLTAKVFRTYNASITLQQQLKELTAPDENVPAKILSYNRANRAVAILCNHQRAPPKTFEKSMMNLQSKIDAKKDQLADARRDLKSAKADAKVMKDAKTKKVVESKKKAVQRLEEQLMKLEVQATDREENKQIALGTSKLNYLDPRITVAWCKKWGVPIEKIYNKTQREKFAWAIDMTDEDYEF
Molecule B1 returned a concentration of Top1-HA at saturation of 1 nM.
